Laboratory results published in patent US9688764B2, “Methods of treating breast cancer by administering anti-human prolactin receptor (PRLR) antibodies” (REGENERON PHARMACEUTICALS, INC., priority 2013, dated 2017).

B1: H1H6958N2-DM1: anti-PRLR antibody H1H6958N2 conjugated to DM1 through an SMCC linker (conjugate)
VH: QVQLVESGGGVVQPGRSLRLSCGASGFTFRNYGMQWVRQGPGKGLEWVTLISFDGNDKYYADSVKGRFTISRDNSKNTLFLQMNSLRTEDTAVYYCARGGDFDYWGQGTLVTVSS
VL: DIQMTQSPSSLSASVGDRVTITCRASQDIRKDLGWYQQKPGKAPKRLIYAASSLHSGVPSRFSGSGSGTEFTLTISSLQPEDFATYYCLQHNSYPMYTFGQGTKLEIK
B2: H1H6953N-DM1 (conjugate)
VH: EVQLLESGGGLVQPGGTLRLSCAASGFTFSAYAMSWVRQAPGKGLEWVSSINVRAGDTYYADSVKGRFTISRDNSKNTLFLLMNSLRAEDTAAYYCAKARYSSNWGFDFWGQGTLVTVSS
VL: DIVMTQSPDSLTVSLGARTTINCQSSQTILHSSNNHNYLAWYQQKPGLPPKLLIYWSSTRESGVPDRFSGSGSGTDFTLTISSLQAEDVAIYYCQQYSNTPYTFGQGTKLEIN

Assays:
[1] = test system: T47D#11 tumors; experiment: Tumor growth inhibition in xenograft-bearing mice; type: in vivo, CB17 SCID mice; conditions: multi-dose, 5 and 15 mg/kg
Text: Briefly, 20×10^6 MCF7/PRLR cells (ATCC HTB-22 transfected with full length hPRLR as previously described) were implanted subcutaneously into the left mammary fat pad of female NCr nude mice. In other studies, 10×10^6 PC3/PRLR (ATCC CRL-1435 transfected with full length hPRLR as previously described) were implanted subcutaneously into the left flank of male SCID mice. Additionally, 10×10^6 parental T47D (ATCC HTB-133) or […] T47D#11 cells (ATCC HTB-133 serially passaged in vivo as described below) were subcutaneously implanted into the left flank of female CB17 SCID mice. All mice were obtained from Taconic (Hudson, N.Y.). Each bolus of cells was supplemented with a 90-day estrogen release pellet (1.7 mg/pellet; Innovative Research America, Sarasota Fla.). Once tumors had reached an average volume of 250 mm^3, mice were randomized into groups of seven and dosed with anti-PRLR antibody-drug conjugates of the invention or control reagents. Control reagents included PBS vehicle, free methyl-disulfide DM1 (DM1-SMe) and isotype Control 1-DM1.
In multi-dose studies, mice were dosed once a week for a total of three weeks with tumor volumes and body weights being monitored twice weekly throughout the study. Test ADCs were dosed at 5 and/or 15 mg/kg in the multi-dose studies. In single-dose studies, mice received a single dose of test ADC, and tumor volumes and body weights were monitored twice weekly throughout the study. Test ADCs were dosed at 1, 2.5, 5, and 15 mg/kg in the single-dose studies. Average tumor size as well as tumor growth inhibition relative to the vehicle treated group were calculated for each group. Tumors were measured with calipers twice a week until the average size of the vehicle group reached 1000 mm^3. Tumor size was calculated using the formula (length×width^2)/2. Tumor growth inhibition was calculated according to the following formula: (1−((Tfinal−Tinitial)/(Cfinal−Cinitial)))*100, where T (treated group) and C (control group) represent the mean tumor mass on the day the vehicle group reached 1000 mm^3. […] Results are summarized in Tables 21-25 (multi-dose) and Table 26 (single dose). (NT=not tested in the particular experiment shown).

[2] = test system: T47D/hErbB2 cells; experiment: Cell viability (cell kill) assay; type: cell-based, human; conditions: T47D/ErbB2; Table 16
Text: (§1) PRLR-overexpressing cells, including HEK293, PC3, MCF7 and NCI-N87, were generated to assess the ability of anti-PRLR conjugated antibodies to reduce cell viability. For comparative purposes, PC3 and T47D cells with overexpressed ErbB2 were also generated, as well as an MCF7 cell line over-expressing both hPRLR and hErbB2. Briefly, Lipofectamine® 2000-mediated transfection methodology was utilized to generate HEK293 cells expressing human PRLR (HEK293/hPRLR) or human ErbB2 (HEK293/hErbB2). Lipofectamine LTX with Plus Reagent was used to generate PC3 cells expressing human PRLR (PC3/hPRLR) or human ErbB2 (PC3/hErbB2). Lentiviral-mediated transduction was utilized to generate MCF7 cells expressing human PRLR (MCF7/hPRLR), NCI-N87 cells expressing human PRLR (NCI-N87/hPRLR), T47D cells over-expressing human ErbB2 (T47D/hErbB2), and MCF7 cells expressing both human PRLR and human ErbB2 (MCF7/hPRLR/hErbB2). All lines were selected for at least two weeks in complete growth media plus appropriate selection reagents. Stably expressing populations were enriched for PRLR expression via FACS using the anti PRLR antibody Control I.
(§2) Next, the ability of anti-PRLR-DM1 antibody-drug conjugates (i.e., anti-PRLR antibodies conjugated to DM1 via a non-cleavable linker [SMCC]) to reduce cell viability was determined using in vitro cell based assays. Cells were seeded in PDL-coated 96 well plates at 1500 to 10000 cells per well in complete growth media and allowed to grow overnight. For cell viability curves, ADCs or free DM1 (as the methyl disulfide derivative DM1-SMe) were added to the cells at final concentrations ranging from 500 nM to 5 pM and incubated for 3 days. The 293, PC3 and T47D cells were incubated with CCK8 (Dojindo, Rockville, Md.) for the final 1-3 hours and the absorbance at 450 nm (OD450) was determined on a Flexstation3 (Molecular Devices, Sunnyvale, Calif.). MCF7 cells were treated with Hoechst 33342 nuclear stain while being fixed with 4% formaldehyde. Images were acquired on the ImageXpress micro XL (Molecular Devices, Sunnyvale, Calif.) and nuclear counts were determined via Columbus image analysis software (Perkin Elmer, Shelton, Conn.). Background OD450 values (PC3, 293, and T47D) or nuclear counts (MCF7) from digitonin (40 nM) treated cells was subtracted from all wells and viability was expressed as a percentage of the untreated controls. IC50 values were determined from a four-parameter logistic equation over a 10-point response curve (GraphPad Prism).
(§3) The potency of anti-PRLR conjugated antibodies compared with a similarly conjugated antibody to the co-expressed ErbB2 cell surface target was also assessed. Both PRLR and ErbB2 are expressed in a majority of breast cancers, and anti-ErbB2 antibodies conjugated to DM1 have shown clinical efficacy in targeting ErbB2 (+) breast cancer (Hurvitz et al; 2013).

[3] = test system: NCI-N87/hPRLR cells; experiment: Cell viability (cell kill) assay; type: cell-based, human; conditions: NCI-N87/PRLR; Table 17
Text: as §1, §2, §3

[4] = test system: MCF7/hPRLR/hErbB2 cells; experiment: Cell viability (cell kill) assay; type: cell-based, human; conditions: MCF/PRLR + ErbB2; Table 17
Text: as §1, §2, §3

[5] = test system: PC3/hErbB2 cells; experiment: Cell viability (cell kill) assay; type: cell-based, human; conditions: PC3/ErbB2; Table 15
Text: as §1, §2, §3

| Molecule | effect on T47D#11 tumor growth [1] | % Kill [2] [%] | IC50 [2] [nM] | IC50 [3] [nM] | IC50 [4] [nM] | IC50 [5] [nM] |
| --- | --- | --- | --- | --- | --- | --- |
| B1 | potently inhibited tumor growth |  |  |  |  |  |
| B2 |  | 80 | 2.4 | 2.9 | 0.33 | 80 |
